26 molecules from patent publication US7091311 (GlaxoSmithKline, dated 2006) can be followed below.

Bridges are numbered along the chain shown (N, C = ends). Where no end group is shown, it is not given here. The star is where a group is joined. Biotin = O=C1N[C@H]2[C@H](CS[C@H]2CCCCC(=O)*)N1

T1: full length human TPO-R (human, UniProt P40238 26-635)
T1 sequence (looked up): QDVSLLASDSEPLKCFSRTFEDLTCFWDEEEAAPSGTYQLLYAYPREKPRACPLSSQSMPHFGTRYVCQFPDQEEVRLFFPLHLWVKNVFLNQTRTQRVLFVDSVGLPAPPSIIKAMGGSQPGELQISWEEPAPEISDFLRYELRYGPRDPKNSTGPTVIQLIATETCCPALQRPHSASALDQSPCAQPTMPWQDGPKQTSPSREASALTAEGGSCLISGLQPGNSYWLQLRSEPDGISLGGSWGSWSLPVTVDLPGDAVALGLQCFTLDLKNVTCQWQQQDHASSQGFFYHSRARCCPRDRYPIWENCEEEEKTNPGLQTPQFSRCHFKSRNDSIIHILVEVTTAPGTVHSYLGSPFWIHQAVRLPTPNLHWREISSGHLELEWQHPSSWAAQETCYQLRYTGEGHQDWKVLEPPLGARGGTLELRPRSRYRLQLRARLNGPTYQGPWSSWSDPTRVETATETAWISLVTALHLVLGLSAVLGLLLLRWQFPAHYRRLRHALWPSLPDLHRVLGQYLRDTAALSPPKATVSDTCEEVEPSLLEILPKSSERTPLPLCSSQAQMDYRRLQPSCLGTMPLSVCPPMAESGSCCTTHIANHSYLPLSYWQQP

For one assay, the target named is T2, soluble TPO-R (UniProt P40238 26-491). Nature of the assay: equilibrium binding ELISA, MBP-TPO or lacI-peptide tracer. (In general: In an ELISA, binding on a coated surface is turned into a signal by an enzyme label.)
For orientation: IC50 means the point on the concentration scale where inhibition reaches its midpoint. Read a low IC50 as greater potency. Molecule GGCTLREWLHGGFCGG (free synthetic peptide) [G G C T L R E W L H G G F C G G] registered an IC50 of at most 0.5 µM.

Another assay deals with T2, soluble TPO-R. Nature of the assay: competition ELISA vs MBP-TPO156.
Consider ADGPTLREWISFCG (also: further groups not given here) [SEQ ID NO:173 compound, C-term, Gly addition], for which the IC50 is at most 0.5 µM.

A further assay concerns the target T1, full length human TPO-R. Nature of the assay: cell-based or functional assay.
For the molecule CADGPTLREWISF (also: further groups not given here, structure printed only as a drawing) [[drawing CHEM-US-00031] (SEQ ID NO:186)(SEQ ID NO:186)], the EC50 cell proliferation is at most 0.5 µM and the EC50 microphysiometer was at most 0.5 µM.

H-CADGPTLREWISFC-NH2 (disulfide 1-14 (inferred), also called [drawing CHEM-US-00034]) [cyclized monomer (SEQ ID NO:12)] came in with an EC50 cell proliferation of at most 0.5 µM and an EC50 microphysiometer of at most 0.5 µM.

DGPTLREWISFC (also: further groups not given here, structure printed only as a drawing) [[drawing CHEM-US-00037] (SEQ ID NO:189)(SEQ ID NO:189)] came in with an EC50 cell proliferation of at most 0.5 µM and an EC50 microphysiometer of at most 0.5 µM.

For MVGPTLRSGC (also: further groups not given here, structure printed only as a drawing) [[drawing CHEM-US-00033] (SEQ ID NO:188)(SEQ ID NO:188)], the EC50 cell proliferation is at most 200 µM.

SVQCGPTLRQWLAARNHLS (also: further groups not given here, structure printed only as a drawing) [[drawing CHEM-US-00032] (SEQ ID NO:187)(SEQ ID NO:187)] displayed an EC50 cell proliferation of at most 0.5 µM and an EC50 microphysiometer of at most 0.5 µM.

Consider CIEGPTLRQWLAARA (also: further groups not given here, also called [drawing CHEM-US-00062]) [[drawing CHEM-US-00030] (SEQ ID NO:185)(SEQ ID NO:185)], for which the EC50 cell proliferation was at most 0.5 µM and the EC50 microphysiometer is at most 0.5 µM.

For a further assay, the target named is T1, full length human TPO-R. Nature of the assay: cell-based or functional assay. The source holds these as a separate data set.
The molecule ADGPTLREWISFCG (also: further groups not given here) [SEQ ID NO:173 compound, C-term, Gly addition] yielded an EC50 cell proliferation of at most 0.5 µM.

Regarding ADGPTLREWISFC-OH (also: further groups not given here) [SEQ ID NO:173 compound, free acid form], the EC50 cell proliferation was at most 0.5 µM and the EC50 microphysiometer was at most 200 µM.

For another assay, the target named is T1, full length human TPO-R. Nature of the assay: cell-based or functional assay. This is another data set of the same source.
The molecule CIEGPTLRQWLAARAC (cysteine pairing not given here; also: further groups not given here, structure printed only as a drawing) [[drawing CHEM-US-00060] (SEQ ID NO:194)] displayed an EC50 cell proliferation of at most 0.5 µM.

In turn, H-IEGPTLRQWLAARA-NH2 [[H]-IEGPTLRQWLAARA-[NH2]] had an EC50 cell proliferation of at most 0.5 µM.

In the case of CIEGPTLRQWLAARA (also: further groups not given here, also called [drawing CHEM-US-00062]) [[drawing CHEM-US-00030] (SEQ ID NO:185)(SEQ ID NO:185)], the EC50 cell proliferation is at most 0.5 µM and the EC50 microphysiometer is at most 0.5 µM.

A further assay has as its target T2, soluble TPO-R. The assay can be described thus: equilibrium binding ELISA, MBP-TPO or lacI-peptide tracer. The source holds these as a separate data set.
GNADGPTLRQWLEGRRPKN (free synthetic peptide) [G N A D G P T L R Q W L E G R R P K N] came in with an IC50 of at most 0.5 µM.

In turn, LAIEGPTLRQWLHGNGRDT (free synthetic peptide) [L A I E G P T L R Q W L H G N G R D T] had an IC50 of at most 0.5 µM.

Regarding TIKGPTLRQWLKSREHTS (free synthetic peptide) [T I K G P T L R Q W L K S R E H T S], the IC50 was at most 0.5 µM.

Consider GGCADGPTLREWISFCGG (free synthetic peptide) [G G C A D G P T L R E W I S F C G G], for which the IC50 was at most 0.5 µM.

With GGCADGPTLREWISFCGGK(Biotin) (cysteine pairing not given here, also called AF 12285) [G G C A D G P T L R E W I S F C G G K (Biotin)], the IC50 was at most 0.5 µM.

In turn, SIEGPTLREWLTSRTPHS (free synthetic peptide) [S I E G P T L R E W L T S R T P H S] registered a half-inhibitory concentration (IC50) of at most 0.5 µM.

In the next assay the target is T2, soluble TPO-R. Nature of the assay: competition ELISA vs MBP-TPO156. The source holds these as a separate data set.
Protocol: (§1) The amount of alkaline phosphatase in each well was then determined using standard methods.
CIEGPTLRQWLAARAC (cysteine pairing not given here; also: further groups not given here, structure printed only as a drawing) [[drawing CHEM-US-00060] (SEQ ID NO:194)] displayed an IC50 of at most 0.5 µM.

On to H-IEGPTLRQWLAARA-NH2 [[H]-IEGPTLRQWLAARA-[NH2]], for which the IC50 is at most 0.5 µM.

Consider CIEGPTLRQWLAARA (also: further groups not given here, also called [drawing CHEM-US-00062]) [[drawing CHEM-US-00030] (SEQ ID NO:185)(SEQ ID NO:185)], for which the IC50 was at most 0.5 µM.

The next assay concerns the target T1, full length human TPO-R. Nature of the assay: cell-based or functional assay. This is another data set of the same source.
As to CADGPTLREWISAC (also: cyclized, mode not given here) [SEQ ID NO:12 cyclized, F - A], the EC50 cell proliferation was around 200 µM and the EC50 microphysiometer is at most 200 µM.

As to CAAGPTLREWISFC (also: cyclized, mode not given here) [SEQ ID NO:12 cyclized, D - A], the EC50 cell proliferation is at most 200 µM and the EC50 microphysiometer was at most 200 µM.

Molecule CADGPTLREWIAFC (also: cyclized, mode not given here) [SEQ ID NO:12 cyclized, S - A] returned an EC50 cell proliferation of at most 0.5 µM and an EC50 microphysiometer of at most 0.5 µM.

For the molecule CPTLREWISFC (disulfide 1-11 (inferred); not fully specified) [SEQ ID NO:12 cyclized, ADG - deletion], the EC50 microphysiometer was at most 200 µM.

Take CADGPTLRQWISFC (also: cyclized, mode not given here) [SEQ ID NO:12 cyclized, E - Q]: the EC50 cell proliferation is at most 0.5 µM and the EC50 microphysiometer was at most 200 µM.

The target in a further assay is T1, full length human TPO-R. Nature of the assay: cell-based or functional assay. This is another data set of the same source.
On to ADGPTLREWISFC (also: further groups not given here) [[drawing CHEM-US-00017] (SEQ ID NO:173)], for which the EC50 cell proliferation was at most 0.5 µM and the EC50 microphysiometer is around 200 µM.

The molecule ADGPTLREWISFE (also: further groups not given here) [[drawing CHEM-US-00018] (SEQ ID NO:183)] yielded an EC50 cell proliferation of around 200 µM and an EC50 microphysiometer of around 200 µM.

As for ADGPTLREWISFC (also: further groups not given here) [[drawing CHEM-US-00016] (SEQ ID NO:173)], the EC50 cell proliferation was at most 0.5 µM and the EC50 microphysiometer was at most 200 µM.

Molecule ADGPTLREWISFC (also: further groups not given here, structure printed only as a drawing) [[drawing CHEM-US-00004] (SEQ ID NO:173)] yielded an EC50 cell proliferation of at most 0.5 µM and an EC50 microphysiometer of at most 0.5 µM.

For a further assay, the target named is T3, soluble TPO-R (UniProt P40238 26-491).
T3 construct: extracellular domain; Immobilized through anti-HPAP antibody Ab179; also called thrombopoietin receptor; c-mpl
Nature of the assay: competition ELISA vs MBP-TPO156.
Protocol: as §1
(§2) In this example cyclized compounds were subjected to three assays. First, $IC50$ valves were obtained as described above.
Turning to CADGPTLREWISAC (also: cyclized, mode not given here) [SEQ ID NO:12 cyclized, F - A], the IC50 is at most 0.5 µM.

Regarding CADGPTLREWIAFC (also: cyclized, mode not given here) [SEQ ID NO:12 cyclized, S - A], the IC50 is at most 0.5 µM.

For the next assay, the target named is T2, soluble TPO-R. The assay can be described thus: competition ELISA vs MBP-TPO156. The source holds these as a separate data set.
Protocol: as §1, §2
As to CAAGPTLREWISFC (also: cyclized, mode not given here) [SEQ ID NO:12 cyclized, D - A], the IC50 is at most 0.5 µM.

The molecule CPTLREWISFC (disulfide 1-11 (inferred); not fully specified) [SEQ ID NO:12 cyclized, ADG - deletion] registered an IC50 of at most 200 µM.

Take CADGPTLRQWISFC (also: cyclized, mode not given here) [SEQ ID NO:12 cyclized, E - Q]: the IC50 is at most 0.5 µM.

A further assay has as its target T3, soluble TPO-R. The assay can be described thus: competition ELISA vs MBP-TPO156. This is another data set of the same source.
Protocol: as §1, §2
As for ADGPTLREWISFC (also: further groups not given here, structure printed only as a drawing) [[drawing CHEM-US-00004] (SEQ ID NO:173)], the IC50 is at most 0.5 µM.

The next assay deals with T3, soluble TPO-R. The assay can be described thus: competition ELISA vs MBP-TPO156. This is another data set of the same source.
Turning to H-CADGPTLREWISFC-NH2 (disulfide 1-14 (inferred), also called [drawing CHEM-US-00034]) [cyclized monomer (SEQ ID NO:12)], the IC50 was at most 0.5 µM.

Another assay deals with T2, soluble TPO-R. Nature of the assay: competition ELISA vs MBP-TPO156. This is another data set of the same source.
In the case of CADGPTLREWISF (also: further groups not given here, structure printed only as a drawing) [[drawing CHEM-US-00031] (SEQ ID NO:186)(SEQ ID NO:186)], the IC50 was at most 0.5 µM.

As to DGPTLREWISFC (also: further groups not given here, structure printed only as a drawing) [[drawing CHEM-US-00037] (SEQ ID NO:189)(SEQ ID NO:189)], the IC50 is at most 0.5 µM.

On to MVGPTLRSGC (also: further groups not given here, structure printed only as a drawing) [[drawing CHEM-US-00033] (SEQ ID NO:188)(SEQ ID NO:188)], for which the IC50 is around 200 µM.

SVQCGPTLRQWLAARNHLS (also: further groups not given here, structure printed only as a drawing) [[drawing CHEM-US-00032] (SEQ ID NO:187)(SEQ ID NO:187)] gave an IC50 of at most 0.5 µM.

As to CIEGPTLRQWLAARA (also: further groups not given here, also called [drawing CHEM-US-00062]) [[drawing CHEM-US-00030] (SEQ ID NO:185)(SEQ ID NO:185)], the IC50 was at most 0.5 µM.
